In this assay the test system is 293T_ABCG2_OX cells (293T cells stably transfected to express ABCG2). Nature of the assay: Topotecan cytotoxicity assay in the presence of antibodies (CellTiter-Glo). The class given is cell-based, human. The following applies: FIG. 1; 293T cells overexpressing ABCG2; 72-96 hr; IC50 values only in the figure. The method, then:
Cytotoxicity Assays. The effect of antibodies on topotecan cytotoxicity was evaluated on 293T_ABCG2_OX cells, 293T cells stably transfected to express ABCG2. Cells were plated in 0.05 mL of Assay Media (DMEM +10% FBS) at 5000 cells/well in white, flat bottom 96-well tissue culture plates. Topotecan was prepared at 2X final assay concentration by serial dilution from 200 uM in assay media containing test antibodies or control antibodies at 100 ug/mL (2X final concentration), or Fumitremorgin C (FTC), a small molecule ABCG2 inhibitor at (2X final concentration). An equivalent volume (0.05 mL) of the topotecan/antibody mixture was added to the 293T_ABCG2_OX cells in 96-well plates. The plates were then incubated at 37° C., in 5% CO2. After about 72-96 hr plates were equilibrated to room temperature and cell viability assessed using Promega® CellTiter-Glo® Luminescent Cell Viability Assay according to the manufacturer’s recommended protocol. Luminescence was measured on a Molecular Devices® FlexStation® 3 Multi-Mode Microplate Reader and data analyzed using GraphPad Prism 8.0 software. Half maximal inhibitory concentration (IC50) is the concentration of drug (topotecan or other chemotherapy cytotoxic agent) where the response (cell growth) is reduced by 50%.
In general terms: ATP-based viability assays read luminescence as a measure of living cells.

Numbering of substitutions follows the chain as printed.

B1: 5D3hVHv1DDKT14KK5D3hVLv1: bispecific ABCG2/CD47 antibody: humanized 5D3 VH version 1 (DD), 5F9 HC (KK), humanized 5D3 VL version 1 common light chain (antibody, V domains shown)
VH 1: EVQLQESGPGLVKPSETLSLTCTVSGFSITSDYAWNWIRQPPGKGLEWMGYINFDGGTTYNPSLRGRITISRDTSKNQFSLKLSSVTAADTAVYYCATFYGAKGTLDYWGQGTLVTVSS
VH 2: QVQLVQSGAEVKKPGASVKVSCKASGYTFTNYNMHWVRQAPGQRLEWMGTIYPGNDDTSYNQKFKDRVTITADTSASTAYMELSSLRSEDTAVYYCARGGYRAMDYWGQGTLVTVSS
VL: DIQLTQSPSSLSASVGDRVTITCKASGYILNRLAWYQQKPGKAPKLLISGATSLETGFPSRFSGSGSGKDYTLTISSLQPEDFATYYCQQYWSTPWTFGGGTKLEIK
Turning to B1, the “susceptibility of cells to topotecan in the presence of the antibody” value (“susceptibility of cells to topotecan” below) is recorded as “increased susceptibility to topotecan”.

B2: 5D3hVHv2DDKT14KK5D3hVLv1: bispecific ABCG2/CD47 antibody: humanized 5D3 VH version 2 (DD), 5F9 HC (KK), humanized 5D3 VL version 1 common light chain (antibody, V domains shown)
VH 1: B1 VH 1 with M49I, I68V
VH 2: B1 VH 2
VL: B1 VL
For B2, the “susceptibility of cells to topotecan” value was “increased susceptibility to topotecan”.

B3: 5D3: anti-ABCG2 antibody 5D3; VH SEQ ID NO:5, VL SEQ ID NO:1; tested with human IgG1 constant regions (antibody, V domains shown)
VH: QVQLQESGPGLVKPSQSLSLTCTVTGFSITSDYAWNWIRQFPGKKLEWMGYINFDGGTTYNPSLRGRISITRDTSKNQFFLQLRSVTPEDTATYYCATFYGAKGTLDYWGQGTSVTVSS
VL: DIVLTQSPSSFSVSLGDRVTISCKASGYILNRLAWYQQKPGNAPRLLISGATSLETGFPSRFSGTGSGKDYTLSISSLQTEDVGTYYCQQYWSTPWTFGGGTKLEIR
modifications: human IgG1 constant regions
notes: anti-ABCG2 antibody 5D3; tested with human IgG1 constant regions
Turning to B3, the “susceptibility of cells to topotecan” value was “increased susceptibility to topotecan”.

B4: 5D3DDKT14KK5D3: bispecific ABCG2/CD47 antibody: HC and LC from anti-ABCG2 antibody 5D3 and a HC from anti-CD47 antibody 5F9; DD/KK charged pair substitutions (antibody, V domains shown)
VH 1: B3 VH
VH 2: B1 VH 2
VL: B3 VL
In the case of B4, the “susceptibility of cells to topotecan” value was “increased susceptibility to topotecan”.

For the origin of these results see patent US20230192902A1, “ABCG2 EFFLUX PUMP-CANCER ANTIGEN MULTI-SPECIFIC ANTIBODIES AND COMPOSITIONS, REAGENTS, KITS AND METHODS RELATED THERETO” (Kenjockety Biotechnology, Inc., priority 2020, published 2023).
